Molecular target: T1, CZGFP (Aequorea victoria (GFP part); CZ helix …)
T1 construct: Expressed in E. coli BL21(DE3) and purified for the in vitro assays; expressed from a pET11a plasmid in the colony assays; also called EK-CGFP; C-terminal GFP fusion peptide
Assay: competition: EK peptide added to refolding NZGFP/CZGFP complex (4 µM), fluorescence at 505 nm; competitor of NZGFP
Description: For inhibition experiments all fluorescence measurements were made in triplicate on a Hitachi F-4500 Fluorescence Spectrophotometer with excitation at 475 nm and emission at 505 nm. A 1.2 mM stock solution of equimolar amounts of NZGFP/CZGFP was allowed to reassemble and fluoresce until there was no change in fluorescence (36 hours). The reassembled complex was denatured in 4 M GdmHCl for 4 hours following which different concentrations of EK peptide, NGFP, or CGFP were added and the NZGFP/CZGFP concentration adjusted to 800 μM. The samples were diluted 200 fold into 2 mM DTT, 10 mM Tris.HCl buffer at pH 7.2 to a 20 mM final concentration of Gdm.HCl and allowed to refold and fluoresce. In order to eliminate artifacts from time dependent inhibition, fluorescence measurements were made after 4 hours and after 16 hours and found to be constant.
To verify that the GRIP assay could be utilized for detecting inhibitors of protein-protein interactions (Zutshi, R., et al., 1998, Curr. Opin. Chem. Biol. 2, 62-66), a LZ peptide corresponding to the LZ present in NZGFP (FIG. 4) was synthesized. The reappearance of fluorescence of the disassembled NZGFP/CZGFP complex in an in vitro assay as a function of added peptide was monitored (FIG. 6). The EK peptide (SEQ ID NO: 1) prevented the assembly of the complex (4 μM) with an IC₅₀ value of 31 μM. […]

T1 sequence (chain, as listed by the source): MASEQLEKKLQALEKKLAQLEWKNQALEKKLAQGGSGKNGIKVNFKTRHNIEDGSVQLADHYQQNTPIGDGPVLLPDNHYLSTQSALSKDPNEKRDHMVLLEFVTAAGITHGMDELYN

B1: EK peptide (peptide)
peptide: ALKKELQANKKELAQLKWELQALKKELAQ
notes: Chemically synthesized and HPLC purified; also called LZ peptide
IC50: 31 µM

From patent publication US20040235064A1 (YALE UNIVERSITY, published 2004)
